According to article PMC3024946, “Hydroxyproline-containing collagen analogs trigger the release and activation of collagen-sequestered proMMP-2 by competition with prodomain-derived peptide P33-42” (Fibrogenesis & Tissue Repair, 2011):

Columns and labels:
Parameters in all cases: species or system human
ProMMP-9 = test: Solid-phase binding of [125I]-proMMP-9 to immobilized collagens/peptides (microwells); details: ProMMP-9, 2 ng/well; coated wells; 4°C, 2 h; residual radioactivity; mean ± SD, at least five experiments in triplicate
Method: (§1) Human recombinant proMMPs and in vitro activated MMPs were obtained from Invitek and were labeled with the [^125I]-Bolton-Hunter reagent according to the manufacturer's instructions (PerkinElmer, Rodgau, Germany) before the buffer was exchanged for phosphate-buffered saline (PBS) with 0.05% (vol/vol) Tween 20 by gel filtration as described previously. Specific radioactivity for [^125I]-MMPs was 3-9 × 10^4 cpm/ng. Precipitation with 10% (wt/vol) trichloroacetic acid and 200 μg of BSA recovered 96% to 100% of protein-bound radioactivity. Aliquots of labeled MMPs were frozen and stored at -80°C. […]
(§2) The following collagen analogs and control peptides were synthesized as described previously: (GPO)10, H-Gly-Cys-Hyp-(Gly-Pro-Hyp)10-Gly-Cys-Hyp-Gly-NH2; (GPP)10, H-Gly-Cys-Pro-(Gly-Pro-Pro)10-Gly-Cys-Pro-Gly-NH2; and GAP, H-Gly-Ala-Cys-(Gly-Ala-Pro)5-Gly-Phe-Hyp-Gly-Glu-Arg-(Gly-Ala-Pro)5-NH2. […] Graphs were calculated from the primary data using a custom fitting program written by D.A. Slatter (Department of Biochemistry, University of Cambridge, Cambridge, UK [48]) to model different possible transitions. […]
(§3) ProMMP-2 and proMMP-9 or actMMP-2 and actMMP-9 were bound to nitrocellulose and polystyrene-immobilized native collagens, CI chains, CB peptides or structural analogs. […] Membranes were washed again and air-dried, and bound MMP was monitored by autoradiography. […]

ActMMP-2 = test: Solid-phase binding of [125I]-actMMP-2 to immobilized collagens/peptides (microwells); details: ActMMP-2, 2 ng/well; coated wells; 4°C, 2 h; residual radioactivity; mean ± SD, at least five experiments in triplicate
Method: as §1, §2, §3

ProMMP-2 = test: Solid-phase binding of [125I]-proMMP-2 to immobilized collagens/peptides (microwells); details: ProMMP-2, 2 ng/well; coated wells; 4°C, 2 h; residual radioactivity; mean ± SD, at least five experiments in triplicate
Method: as §1, §2, §3

ActMMP-9 = test: Solid-phase binding of [125I]-actMMP-9 to immobilized collagens/peptides (microwells); details: ActMMP-9, 2 ng/well; coated wells; 4°C, 2 h; residual radioactivity; mean ± SD, at least five experiments in triplicate
Method: as §1, §2, §3

- Binding of [125I]-MMPs (ProMMP-9): 45.0 ± 2.0 % of maximum control
- Binding of [125I]-MMPs (ActMMP-2): 14.3 ± 5.8 % of maximum control
- Binding of [125I]-MMPs (ProMMP-2): 40.0 ± 5.0 % of maximum control
- Binding of [125I]-MMPs (ActMMP-9): 5.0 ± 0.4 % of maximum control
B1: CIII: native human collagen type III (protein)
chain: QQEAVEGGCSHLGQSYADRDVWKPEPCQICVCDSGSVLCDDIICDDQELDCPNPEIPFGECCAVCPQPPTAPTRPPNGQGPQGPKGDPGPPGIPGRNGDPGIPGQPGSPGSPGPPGICESCPTGPQNYSPQYDSYDVKSGVAVGGLAGYPGPAGPPGPPGPPGTSGHPGSPGSPGYQGPPGEPGQAGPSGPPGPPGAIGPSGPAGKDGESGRPGRPGERGLPGPPGIKGPAGIPGFPGMKGHRGFDGRNGEKGETGAPGLKGENGLPGENGAPGPMGPRGAPGERGRPGLPGAAGARGNDGARGSDGQPGPPGPPGTAGFPGSPGAKGEVGPAGSPGSNGAPGQRGEPGPQGHAGAQGPPGPPGINGSPGGKGEMGPAGIPGAPGLMGARGPPGPAGANGAPGLRGGAGEPGKNGAKGEPGPRGERGEAGIPGVPGAKGEDGKDGSPGEPGANGLPGAAGERGAPGFRGPAGPNGIPGEKGPAGERGAPGPAGPRGAAGEPGRDGVPGGPGMRGMPGSPGGPGSDGKPGPPGSQGESGRPGPPGPSGPRGQPGVMGFPGPKGNDGAPGKNGERGGPGGPGPQGPPGKNGETGPQGPPGPTGPGGDKGDTGPPGPQGLQGLPGTGGPPGENGKPGEPGPKGDAGAPGAPGGKGDAGAPGERGPPGLAGAPGLRGGAGPPGPEGGKGAAGPPGPPGAAGTPGLQGMPGERGGLGSPGPKGDKGEPGGPGADGVPGKDGPRGPTGPIGPPGPAGQPGDKGEGGAPGLPGIAGPRGSPGERGETGPPGPAGFPGAPGQNGEPGGKGERGAPGEKGEGGPPGVAGPPGGSGPAGPPGPQGVKGERGSPGGPGAAGFPGARGLPGPPGSNGNPGPPGPSGSPGKDGPPGPAGNTGAPGSPGVSGPKGDAGQPGEKGSPGAQGPPGAPGPLGIAGITGARGLAGPPGMPGPRGSPGPQGVKGESGKPGANGLSGERGPPGPQGLPGLAGTAGEPGRDGNPGSDGLPGRDGSPGGKGDRGENGSPGAPGAPGHPGPPGPVGPAGKSGDRGESGPAGPAGAPGPAGSRGAPGPQGPRGDKGETGERGAAGIKGHRGFPGNPGAPGSPGPAGQQGAIGSPGPAGPRGPVGPSGPPGKDGTSGHPGPIGPPGPRGNRGERGSEGSPGHPGQPGPPGPPGAPGPCCGGVGAAAIAGIGGEKAGGFAPYYG
